US20050215467A1 (published 2005)

T1: LCAT (purified from human plasma) (human, UniProt P04180 25-440)
T1 sequence (looked up): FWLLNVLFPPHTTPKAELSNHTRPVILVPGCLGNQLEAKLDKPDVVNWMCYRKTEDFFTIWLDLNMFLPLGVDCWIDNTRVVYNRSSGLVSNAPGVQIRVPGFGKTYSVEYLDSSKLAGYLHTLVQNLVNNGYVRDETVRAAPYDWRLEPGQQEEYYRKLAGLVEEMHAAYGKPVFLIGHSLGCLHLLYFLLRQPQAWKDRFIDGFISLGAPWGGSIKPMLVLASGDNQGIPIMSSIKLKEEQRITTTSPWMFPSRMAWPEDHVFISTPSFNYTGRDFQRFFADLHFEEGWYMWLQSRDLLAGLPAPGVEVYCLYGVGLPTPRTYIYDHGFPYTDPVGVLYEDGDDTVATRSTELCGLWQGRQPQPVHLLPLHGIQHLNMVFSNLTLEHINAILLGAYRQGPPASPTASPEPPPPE

B1: peptide 15 (peptide)
peptide: PVLDLFRELWNELLEALKQKLK
notes: peptide 4 containing a Trp residue at position 10

Legend:
[1] = target: the molecule itself; assay: tryptophan fluorescence emission maximum (332 nm), peptide free in buffer; self-association
[2] = target: T1, LCAT (purified from human plasma); assay: cell-based or functional assay

| Binder | binding result [1] | ACTIVITY (%) LCAT [2] [%] |
| --- | --- | --- |
| B1 | binds |  |
| PVLDLFRELGNELLEALKQKLK [peptide 9] |  | 63 |
